Legend:
[1] = surface FACS; settings: glycan lost
[2] = dSTORM, Hopkins index and H-function, TMD8; settings: glycan lost; control: untreated / control cells
[3] = IgM-TLR9 proximity ligation assay; settings: glycan lost; control: wild type IgM
[4] = dual-color iSIM, Pearson correlation, TMD8; settings: glycan lost; control: wild type IgM
[5] = IgM-LAMP1 proximity ligation assay; settings: glycan lost; control: DMSO
[6] = anti-IgM Fab-pHrodo internalization, flow cytometry; settings: glycan lost; control: DMSO
[7] = CD79A-BioID2 proximity labelling, SILAC MS, TMD8; settings: glycan lost; control: DMSO

B1: IgM: quadruple mutant (N46Q, N209Q, N272Q, N279Q) (protein)
parent chain: GSASAPTLFPLVSCENSPSDTSSVAVGCLAQDFLPDSITFSWKYKNNSDISSTRGFPSVLRGGKYAATSQVLLPSKDVMQGTDEHVVCKVQHPNGNKEKNVPLPVIAELPPKVSVFVPPRDGFFGNPRKSKLICQATGFSPRQIQVSWLREGKQVGSGVTTDQVQAEAKESGPTTYKVTSTLTIKESDWLGQSMFTCRVDHRGLTFQQNASSMCVPDQDTAIRVFAIPPSFASIFLTKSTKLTCLVTDLTTYDSVTISWTRQNGEAVKTHTNISESHPNATFSAVGEASICEDDWNSGERFTCTVTHTDLPSPLKQTISRPKGVALHRPDVYLLPPAREQLNLRESATITCLVTGFSPADVFVQWMQRGQPLSPEKYVTSAPMPEPQAPGRYFAHSILTVSEEEWNTGETYTCVVAHEALPNRVTERTVDKSTEGEVSADEEGFENLWATASTFIVLFLLSLFYSTTVTLFKVK
localisation_or_trafficking ([1]; control: wild type IgM): no change

B2: IgM: STT3B knockout (protein)
parent chain: B1 parent chain
other: surface clustering [2]: decreases

B3: IgM: N209Q (protein)
parent chain: B1 parent chain
localisation_or_trafficking ([1]; control: wild type IgM): no change

B4: IgM: N209 mutant (protein)
parent chain: B1 parent chain
other: proximity (My-T-BCR formation) [3]: decreases | other: plasma-membrane colocalisation [4]: increases

B5: IgM: NGI-1 (protein)
parent chain: B1 parent chain
localisation_or_trafficking [5]: decreases | localisation_or_trafficking [6]: decreases | other: surface clustering [2]: decreases

B6: IgM: N46 mutant (protein)
parent chain: B1 parent chain
other: proximity (My-T-BCR formation) [3]: decreases | other: plasma-membrane colocalisation [4]: increases

B7: CD79A: N112Q (protein)
parent chain: MPGGPGVLQALPATIFLLFLLSAVYLGPGCQALWMHKVPASLMVSLGEDAHFQCPHNSSNNANVTWWRVLHGNYTWPPEFLGPGEDPNGTLIIQNVNKSHGGIYVCRVQEGNESYQQSCGTYLRVRQPPPRPFLDMGEGTKNRIITAEGIILLFCAVVPGTLLLFRKRWQNEKLGLDAGDEYEDENLYEGLNLDDCSMYEDISRGLQGTYQDVGSLNIGDVQLEKP
localisation_or_trafficking ([1]; control: wild type CD79A): no change

B8: CD79A: NGI-1 (protein)
parent chain: B7 parent chain
other: proximity [7]: increases

B9: CD79B: N73Q (protein)
parent chain: MARLALSPVPSHWMVALLLLLSAEPVPAARSEDRYRNPKGSACSRIWQSPRFIARKRGFTVKMHCYMNSASGNVSWLWKQEMDENPQQLKLEKGRMEESQNESLATLTIQGIRFEDNGIYFCQQKCNNTSEVYQGCGTELRVMGFSTLAQLKQRNTLKDGIIMIQTLLIILFIIVPIFLLLDKDDSKAGMEEDHTYEGLDIDQTATYEDIVTLRTGEVKWSVGEHPGQE
localisation_or_trafficking ([1]; control: wild type CD79B): no change

B10: CD79B: N101Q (protein)
parent chain: B9 parent chain
localisation_or_trafficking ([1]; control: wild type CD79B): no change

B11: CD79B: triple mutant (N73Q, N101Q, N127Q) (protein)
parent chain: B9 parent chain
localisation_or_trafficking ([1]; control: wild type CD79B): no change
